Measured values from publication PMC10202413.

Target: T1, protein tyrosine kinase 7 (PTK-7) on HCT-116 cells (UniProt Q13308)
T1 sequence: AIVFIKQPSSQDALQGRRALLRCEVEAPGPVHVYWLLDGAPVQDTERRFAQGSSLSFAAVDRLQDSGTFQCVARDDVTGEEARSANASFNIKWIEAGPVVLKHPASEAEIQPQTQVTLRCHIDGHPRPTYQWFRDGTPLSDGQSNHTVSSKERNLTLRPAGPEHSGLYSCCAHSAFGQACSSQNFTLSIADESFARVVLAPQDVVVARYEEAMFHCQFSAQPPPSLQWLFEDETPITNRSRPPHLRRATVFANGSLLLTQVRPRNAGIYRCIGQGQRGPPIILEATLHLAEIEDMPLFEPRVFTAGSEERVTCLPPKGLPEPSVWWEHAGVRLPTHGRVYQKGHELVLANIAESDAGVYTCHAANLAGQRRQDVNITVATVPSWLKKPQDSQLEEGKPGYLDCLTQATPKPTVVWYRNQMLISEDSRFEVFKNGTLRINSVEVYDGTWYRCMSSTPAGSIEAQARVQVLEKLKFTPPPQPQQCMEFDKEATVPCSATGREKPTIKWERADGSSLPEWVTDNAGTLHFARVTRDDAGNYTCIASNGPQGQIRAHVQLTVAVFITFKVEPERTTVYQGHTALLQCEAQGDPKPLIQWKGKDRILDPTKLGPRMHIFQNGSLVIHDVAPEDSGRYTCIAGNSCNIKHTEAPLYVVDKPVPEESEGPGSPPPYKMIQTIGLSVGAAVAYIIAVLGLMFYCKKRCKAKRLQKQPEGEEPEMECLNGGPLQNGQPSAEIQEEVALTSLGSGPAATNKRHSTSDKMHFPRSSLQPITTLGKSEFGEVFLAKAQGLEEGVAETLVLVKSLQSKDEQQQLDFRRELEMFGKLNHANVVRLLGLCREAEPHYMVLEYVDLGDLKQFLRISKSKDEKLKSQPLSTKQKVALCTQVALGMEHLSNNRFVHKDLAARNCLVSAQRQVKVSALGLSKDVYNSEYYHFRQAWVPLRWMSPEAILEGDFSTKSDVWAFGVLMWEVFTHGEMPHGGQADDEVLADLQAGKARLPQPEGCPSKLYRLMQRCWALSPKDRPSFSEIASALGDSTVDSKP
Experiment: flow cytometry, cell binding
Conditions: 5 mM Mg2+, Whole cells washed in D-PBS with 4.5 g/L glucose and 5 mM MgCl2, 300,000 cells in 200 ul binding buffer (composition and pH not stated), on ice 30 min …

Sequence | Kd (5' amino coupled to p-SCN-Bn-NOTA) | Kd
ATCTAACTGCTGCGCCGCCGGGAAAATACTGTACGGTTAGA [NOTA-SGC8] | 3.49 nM | 
ATCTAACTGCTGCGCCGCCGGGAAAATACTGTACGGTTAGA [SGC8] |  | 1.88 nM
